# Experimental data taken from patent US10144929B2, “Polypeptide inhibitors of Smad3 polypeptide activities” (Mayo Foundation for Medical Education and Research, priority 2016, dated 2018).
# No end group written: not given here.
# Biological target: T1, pSmad3 (Mus musculus, UniProt Q8BUN5)
# T1 construct: endogenous in cells; host or cells: AKR-2B cells
# Assay: Nuclear import of pSmad3 (nuclear fractions Western, immunofluorescence) in AKR-2B cells
# Type: cell-based
# Settings: 90 minutes transduction, TGFβ 5 ng/mL 1 hour
# Description: FIGS. 1A-C. SH3 domain of sorting nexin 9 (SNX9) specifically binds pSmad3 and prevents nuclear import. (A) Cartoon depicting domains in full length (FL) SNX9 and constructs used for GST pull down assays. Lysates from AKR-2B cells untreated (−) or stimulated (+) for 45 minutes with 5 ng/mL TGFβ were incubated with GST beads or the indicated fusion polypeptides immobilized on GST beads. Bound polypeptides were eluted and assessed by Western analysis for pSmad3 or pSmad2. Cell lysate reflects signal obtained from 10 μg total protein. (B) AKR-2B cells were transduced for 90 minutes with the indicated concentrations of the TAT-SNX9(SH3) fusion polypeptides. […] Quantitation of nuclear pSmads was performed with Image J software and represents the mean+/−sd of two experiments (Right). […] Quantitation of nuclear Smad3 from 30 cells in each of two experiments (Right).
# FIGS. 3A-E. Inhibition of Smad3 signaling by a defined region of the SH3 domain in SNX9. […] (B) Nuclear fractions were prepared and assessed as in FIG. 1B following transduction with the indicated TAT-SNX9(SH3) fusion polypeptide (Left). Quantitation (mean+/−sd) of nuclear pSmad2 or pSmad3 from 2 experiments (Right). (C) Immunofluorescence of nuclear Smad3 was determined as in FIG. 1C from 30 cells in each of two experiments in the absence (−) or presence (+) of 5 ng/mL TGFβ and the indicated TAT-SNX9(SH3) fusion polypeptide (1.5 μM). […]
# T1 sequence (Q8BUN5 whole entry): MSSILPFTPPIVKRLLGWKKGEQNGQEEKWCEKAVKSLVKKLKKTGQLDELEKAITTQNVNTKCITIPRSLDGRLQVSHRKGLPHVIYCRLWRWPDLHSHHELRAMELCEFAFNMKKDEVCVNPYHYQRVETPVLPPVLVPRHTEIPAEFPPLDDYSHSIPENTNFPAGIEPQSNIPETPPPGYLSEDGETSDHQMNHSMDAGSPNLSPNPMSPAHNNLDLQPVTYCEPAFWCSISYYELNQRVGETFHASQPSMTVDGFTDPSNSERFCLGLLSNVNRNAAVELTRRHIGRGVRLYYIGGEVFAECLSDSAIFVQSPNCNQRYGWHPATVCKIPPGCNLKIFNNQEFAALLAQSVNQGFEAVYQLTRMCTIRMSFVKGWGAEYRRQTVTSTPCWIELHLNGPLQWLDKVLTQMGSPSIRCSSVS
substance,measurement,value
"TAT-containing polypeptide encoding amino acids 27-42 of SNX9: 16 mer TAT-SNX9(SH3) fusion polypeptide, SNX9 amino acids 27-42; probably SH3-2-2 (SEQ ID NO:34) (IITITNPDVGGGWLEG; also: TAT cell-penetrating peptide fusion; UniProt Q9Y5X1 27-42, looked up, fragment)",nuclear import of pSmad3,activity similar to that obtained with SB431542
